Test [1] has as its target T1, human osteopontin (human OPN protein) (human, UniProt P10451 17-314, limits assumed).
T1 construct: The isoform follows from the 963 bp PCR fragment and is not otherwise stated; also called hOPN
The test is described as follows: ELISA, plate coated with OPN 2 ug/ml, COS-1 supernatant, HRP-rabbit anti-human IgG. As for the experimental part:
An ELISA plate was coated with 2 ug/ml OPN. The binding activity of the humanized antibody obtained from the transfection was detected by ELISA. […] The amino acid sequences of the h1A12HBb's and the h1A12Lb's variable regions were shown in FIG. 4, SEQ ID NO: 18 and SEQ ID NO: 19 show the nucleotide sequence and the amino acid sequence of h1A12Hb's variable region respectively. SEQ ID NO: 20 and SEQ ID NO: 21 show the nucleotide sequence and the amino acid sequence of h1A12Lb's variable region respectively. The genes of the humanized antibody's VH and VL (h1A12VHb/h1A12VLb) were synthesized respectively. […] Then, expression vectors of the light and the heavy chain were used to co-transfect the COS-1 cells. The antibody's antigen-binding activity was determined by ELISA. Specifically, an ELISA plate was coated with OPN protein (2 ug/ml) coated at 4° C. overnight, and was blocked with 2% BSA-PBS for 2 h at 37° C. […] HRP-rabbit anti-human IgG was added into the plate for binding reaction (incubated at 37° C. for 1 h).

Test [2] has as its system MDA-MB-435s cells. Briefly: Cell invasion assay (Transwell, Matrigel). Conditions: antibody 25 μg/ml; in the presence of hOPN; 24 hours. The test is classed as cell-based. The method, then:
The assay of cell invasion was carried out using the Transwell system (Corning) with the pore size of […]. The basement membrane of the upper chamber was coated with the artificial matrix gel (Matrigel). After being dried in a flame hood, the matrigel was hydrated with DMEM at 37° C. for 1 hour. MDA-MB-435s cells were detached using 0.2% EDTA and suspended in 0.25% BSA/DMEM at the concentration of 5×10^5 cells/ml. 100 μl of the obtained cell suspension as well as the following 25 μg/nil of antibodies were respectively added into the upper chamber of each well: 1A12 (murine anti-human OPN antibody), c1A12 (human-mouse chimeric antibody), h1A12 (humanized antibody), and 23C3 (irrelevant antibody control). To lower chamber, 0.25% of BSA/DMEM (with or without OPN) was added. The system was then incubated in incubator at 37° C. for 24 hours. After that, the cells remaining in the upper chamber was wiped away using a cotton swab, and the cells penetrate through the basement membrane into the lower chamber were washed with PBS, fixed with 1% formaldehyde, and then stained with 0.5% crystal violet. The cells were counted in the field at 200× magnification under a microscope.

Test [3] concerns MDA-MB-435s cells. Briefly: Scratch wound healing assay. The format is cell-based. Conditions: antibody 25 μg/ml; 24 hours. The method, then:
The MDA-MB-435s cells cultured in a 12-wells plate to almost confluent (90%) washed with PBS and starved overnight with serum-free DMEM. Scratches were made on the cell monolayer using a 10 μl pipette, and PBS was added to wash away the floating cells. The test groups were treated with 25 μg/ml of the murine anti-human OPN antibody 1A12, the human-murine chimeric antibody c1A12 and the humanized antibody h1A12, and the control group, 25 μg/ml of the irrelevant antibody. The cells were incubated in an incubator at 37° C. for 24 hours. The result was expressed as the number of the cells that cross the base line.

Test [4] relates to MDA-MB-435s cells. The test is described as follows: Cell adhesion assay on hOPN-coated plate. The test is classed as cell-based. As to conditions: antibody 25 μg/ml; plate coated with 10 μg/ml hOPN; 2 hrs. As for the experimental part: MDA-MB-435s was purchased from the Institute of Cell Biology of Chinese Academy of Sciences (Shanghai, China), and 23C3D3 was used as the irrelevant antibody.
A 96-well plate (Greiner) was coated with 10 μg/ml hOPN (prepared in Example 3) or BSA (SIGMA) at 4° C. overnight, and was then blocked with 1% BSA/PBS at 37° C. for 1 hour to block any non-specific binding sites. The MDA-MB-435s cells were detached using 0.2% EDTA and then re-suspended in 0.25% BSA/DMEM at the concentration of 5×10^5 cells/ml. To each well, 100 μl (5×10^4) MDA-MB-435s cells were added in the presence of various anti-OPN antibodies (25 μg/ml) murine anti-human OPN antibody 1A12, the human-murine chimeric antibody c 1A12 or the humanized antibody h1A12 as treatment groups and the irrelevant antibody 23C3 as control (25 μg/ml). After incubation at 37° C. for 2 hrs, the medium was removed and washed twice with PBS gently. The adherent cells were fixed in 1% formaldehyde at 4° C. for 10 minutes, stained with 0.5% crystal violet after washed with PBS and lysed with 2% Triton X-100 (50 μl). The absorbance was measured at 595 nm.

Test [5] deals with human vascular endothelial cell (HUVEC). The test is described as follows: HUVEC proliferation by 3H-TdR incorporation. The format is cell-based. As to conditions: M200+1% BSA+OPN+antibody; 24 hours. The method, then:
HUVEC cell proliferation was measured by the ^3H-TdR incorporation method to determine the protective effect of OPN on cell survival and the inhibitory effect of the anti-OPN antibodies on the OPN protection. Each well of a 96-well plate was inoculated with 2×10^4 HUVECs and cultured in a complete medium for 24 hours. The cells were then treated as following for 24 hours: […]
iv. M200+1% BSA+OPN+murine anti-OPN antibody 1A12 v. M200+1% , BSA+OPN+human-murine chimeric anti-OPN antibody c1A12 vi. M200+1% BSA+OPN+humanized anti-OPN antibody h1A12 vii. M200+1% BSA+OPN+irrelevant antibody
24 hours later, 1 uCi/well ^3H-thymidine was added and, after being incubated at 37° C. for 6 hours, washed once with PBS. The plate was treated with ice-cold 10% trichloroacetic acid/H2O at 4° C. for 10 min, and then washed for two times with, ice-cold ddH2O. Cytolysis was conducted by adding into each well 0.1 ml of 0.5 N NaOH, 0.5% SDS at room temperature for 10 min. After adding 0.2 ml of 0.5 N HCl and mixing, the cells were collected using a multiple cell collector.

The test system of test [6] is HUVECs. Briefly: Formation of capillary-like structure in HUVECs on matrigel. The test is classed as cell-based, human. As for the experimental part: HUVECs were cultured in the M200 medium containing LCGS to 80% confluence. The matrigel stored at −20° C. was took out the day before experiment and naturally thawed at 4° C. for 3 to 12 hours. To each well of a 96-welt plate was added […] using a pre-cooled pipet with carefully removing the bubbles, wherein the whole procedure was carried on ice. The loaded plate was incubated at 37° C. for 1 hour to gel the matrigel. To each well, 100 μl HUVECs (2×10^4/well) was gently added onto the surface of matrigel. To the treatment groups were further added the anti-hOPN antibodies 1A12, c1A12 and h1A12. The plate was incubated at 37° C. for […], and the formation of the capillary-like structure was observed 6 hours after.

Test [7] concerns rabbit cornea. The test is described as follows: OPN-induced rabbit corneal neovascularization. Conditions: pellet with 200 ng hOPN and 1 μg antibody; for area of neovascularization / length of the newly generated blood vessels: relative to irrelevant antibody group, P<0,01. The format is in vivo. As for the experimental part: The Hydron powder was dissolved in anhydrous ethanol under sterile condition to the final concentration of 12% (w/v), and dissolved with agitation under 37° C. to formulate the 12% Hydron cast solution, which was then stored at room temperature. A quota of sucralfate powder formulated in sterile Milli Q water under sterile conditions as a suspension with the final concentration of 100 μg/μl, which was stored at 4° C., and vortexed to homogeneous intermediately before use. Sustained-release pellets were prepared to each containing 200 ng hOPN and 50 μg sucralfate and, for the antibody groups, 1 μg anti-OPN antibodies, and for the control, the irrelevant antibody. The 12% Flydron east solution and the hOPN-sucralfate-PBS blend were mixed as the ratio of 1:1 (volume ratio), vortexed for 1 min. Then 5 μl mixed Hydron-sucralfate-hOPN solution was added onto a sterilized Parafilm surface, dried for about 30 min on a super-clean bench for a complete polymerization. The polymers were then shaped into uniform circular granules with a 2 mm diameter using an eye tweezers. The granules were stored at −20′C. Animals were grouped in the same way as in Experiment II-3, each group consisting of four eyes.
The rabbit was anesthetized at ear edge vein with 3% sodium pentobarbital (1 ml/kg body weight) and on both corneal surfaces with 1% tetracaine. The thickness of the cornea was measured using an ultrasonic cornea thickness gauge. A 3 mm half-depth incision was made at the center of the cornea using an ophthalmic knife, and an undermining tunnel toward the 12 o'clock or 3 o'clock position on the corneoscleral margin was made using a 2 mm-wide scleral tunnel knife, whereby the tunnel lied within the corneal layer with the top of the tunnel about 1 mm distant from the limbus corneae. The Hydron/sucralfate sustained-release pellet was implanted into the top of tunnel using micro-tweezers. The cuts were treated with chlortetracycline eye ointment after the surgery. From Day 1 after the surgery, the double-blinded observer observed the rabbit conical neovascularization under the slit-lamp each day, until the Day 10, The length (VL) and the vascular clock angle (CN, 30°=1CN) of the longest vessel were measured, and the area of neovascularization was calculated according to the following formula:
Area (mm^2)=0.2×π×VL (mm)×CN (mm)

In test [8] the test system is MDA-MB-435s cells. The test is described as follows: Clone formation on soft agar assay. The test is classed as cell-based. Conditions: antibody 25 μg/ml every other day; 3 weeks. The method, then: The assay of clone formation on soft agar was conducted using a double-layer soft agar system. 2.5% melted agar was mixed the DMEM medium pre-warmed at 37° C. to formulate a 0.5% agar solution, which was then diluted with DMEM to a 0.3% agar solution. To each well of a 24-well plate was added 500 μl of a 0.5% agar solution, which was allowed to gel at 4° C., and then kept warm in an incubator at 37°C. The MDA-MB-435s cells were detached using 0.2% .EDTA and suspended in the 0.3% agar solution at the concentration of 5×10^3 cells/ml. 500 μl of the cell suspension was added each well and left to gel. From the second day, the cells were respectively treated with 1A12, c1A12, h1A12 or the irrelevant antibody (23C3D3) (25 μg/ml) every other day. After 3 weeks, the colony formation ability was evaluated by measuring the size of colonies containing more than 10 cells.

T1 sequence (P10451 17-314 limits assumed): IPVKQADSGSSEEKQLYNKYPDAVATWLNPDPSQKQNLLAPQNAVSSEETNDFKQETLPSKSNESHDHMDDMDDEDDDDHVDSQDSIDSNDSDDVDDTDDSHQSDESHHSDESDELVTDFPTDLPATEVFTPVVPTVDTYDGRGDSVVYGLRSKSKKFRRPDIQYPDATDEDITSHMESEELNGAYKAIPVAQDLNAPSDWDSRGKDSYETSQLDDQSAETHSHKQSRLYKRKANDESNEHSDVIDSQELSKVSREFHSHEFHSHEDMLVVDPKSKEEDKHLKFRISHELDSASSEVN

B1: humanized anti-hOPN antibody h1A12 (h1A12Hb/h1A12Lb) (antibody, human IgG1, kappa, V domains shown)
VH: QVQLVQSGAEVKKPGASVKVSCKSSGYTFTTYVMHWVKQAPGQGLEWIGYINPYNDGSKYNEKFKGRVTITSDKSASTAYMELSSLRSEDTAVYYCASHYGGSPAYWGQGTLVTVSS
VL: DVLMTQSPLSLPVTLGQPASISCRSSQSLVHSNGNTYLHWFQQRPGQSPKLLIYKVSNRFSGVPDRFSGSGSGTDFTLKISRVEAEDVGVYYCSQSTHVPWTFGGGTKVEIKR
notes: Tested as COS-1 supernatant in the ELISA; also called humanized antibody 1A12
On to B1, for which the binding result in test [1] is listed as “binds”.

B2: h1A12: humanized anti-hOPN mAb; VH SEQ ID NO: 19, VL SEQ ID NO: 21, human constant region (antibody, V domains shown)
VH: B1 VH
VL: B1 VL
modifications: human constant regions; amino acid sequence of the VH in humanized anti-OPN antibody H1A12; amino acid sequence of the VL in humanized anti-OPN antibody H1A12
On to B2, for which the “blocking of invasion of the basement membrane by MDA-MB-435s” value in test [2] is recorded as “effectively block”. Also, in test [3], the “inhibition of the reparation of the scratches and damages” value is recorded as “effectively inhibit”. Further, the “blocking of the binding between MDA-MB-435s cells and hOPN” value in test [4] is on record as “effectively block”. Further, the “3H-TdR incorporation relative to the OPN group” value in test [5] is on record as “significantly lower”. The “potency of forming the capillary-like structure in HUVECs” value in test [6] is given as “reduce”. For the same molecule, in test [7], the “corneal neovascularization relative to the OPN group” value is “significantly reduced”, the area of neovascularization entry is on record as “significantly shrunk” and the “length of the newly generated blood vessels” value is on record as “significantly reduced”. Also, the “inhibition of clone size formed by MDA-MB-435s cells on soft agar” value in test [8] is listed as “no significant differences”.

B3: c1A12: chimeric anti-hOPN mAb between human and murine; VH SEQ ID NO: 4, VL SEQ ID NO: 6, human constant region (antibody, V domains shown)
VH: QVQLEQSGPELVKPGASVKMSCKSSGYTFTTYVMHWVKQKPGQGLEWIGYINPYNDGSKYNEKFKGKATLTSDKSSNTAYMELSSLTSEDSAVYYCASHYGGSPAYWGQGTLVTVSA
VL: DILMTQTPLSLPVSLGDQASISCRSSQSLVHSNGNTYLHWYLQKPGQSPKLLIYKVSNRFSGVPDRFSGSGSGTDFTLKISRVEAEDLGVYFCSQSTHVPWTFGGGTKLEIKR
modifications: human constant regions; amino acid sequence of the heavy chain variable region in 1A12; amino acid sequence of the light chain variable region in 1A12
On to B3, for which the “blocking of invasion of the basement membrane by MDA-MB-435s” value in test [2] is recorded as “effectively block”. In addition, the “inhibition of the reparation of the scratches and damages” value in test [3] was “effectively inhibit”. For the same molecule, the “blocking of the binding between MDA-MB-435s cells and hOPN” value in test [4] is on record as “effectively block”. For the same molecule, the “3H-TdR incorporation relative to the OPN group” value in test [5] is given as “significantly lower”. Besides, the “potency of forming the capillary-like structure in HUVECs” value in test [6] was “reduce”. Further, in test [7], the “corneal neovascularization relative to the OPN group” value is on record as “significantly reduced”, the area of neovascularization entry is “significantly shrunk” and the “length of the newly generated blood vessels” value is “significantly reduced”. Moreover, the “inhibition of clone size formed by MDA-MB-435s cells on soft agar” value in test [8] is listed as “no significant differences”.

These data come from patent publication US20100151486A1, “OSTEOPONTIN FUNCTIONAL EPITOPES, MONOCLONAL ANTIBODIES AGAINST THE EPITOPES AND USES THEREOF” (SHANGHAI NATIONAL ENGINEERING RESEARCH CENTER OF A, priority 2007, published 2010).
